According to publication PMC13200811 (Cell, 2025):
Where two headings read alike, the source gives them in different places. Values belong to the molecule of their own block, whether it stands above or below them.

Key:
[1] = molecular target: BCL-wΔN (aa 40-193; α2-α9) (human) (UniProt Q92843); test: SEC
[2] = molecular target: BCL-wΔNΔC (aa 40-156; α2-α8) (human) (UniProt Q92843); test: SEC
SEC [3] = molecular target: the molecule itself; test: SEC
SEC [4] = molecular target: the molecule itself; test: SEC; remark: listed apart in the source
[5] = molecular target: T1, full-length monomeric BCL-w (aa 1-193) (human), Q92843; test: SEC-SAXS; conditions: remark: other sources report otherwise
T1 chain: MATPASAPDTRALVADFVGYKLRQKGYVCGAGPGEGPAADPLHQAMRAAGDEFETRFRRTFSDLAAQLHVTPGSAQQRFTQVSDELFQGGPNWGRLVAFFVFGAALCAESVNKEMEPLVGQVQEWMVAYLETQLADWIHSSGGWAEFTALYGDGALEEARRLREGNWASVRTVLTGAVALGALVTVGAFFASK

[6] = molecular target: T1, full-length monomeric BCL-w (aa 1-193) …; test: SEC-MALS; conditions: remark: other sources report otherwise

stoichiometry N [1]: 2
Molecule: BCL-wΔN (aa 40-193; α2-α9) (from UniProt Q92843 40-193) (domain or fragment)

stoichiometry N [2]: 2
Molecule: BCL-wΔNΔC (aa 40-156; α2-α8) (from UniProt Q92843 40-156) (domain or fragment)

stoichiometry N [5]: 2
stoichiometry N [6]: 2
B3: full-length monomeric BCL-w (aa 1-193), Q92843 1-193 (natural protein)
chain: MATPASAPDTRALVADFVGYKLRQKGYVCGAGPGEGPAADPLHQAMRAAGDEFETRFRRTFSDLAAQLHVTPGSAQQRFTQVSDELFQGGPNWGRLVAFFVFGAALCAESVNKEMEPLVGQVQEWMVAYLETQLADWIHSSGGWAEFTALYGDGALEEARRLREGNWASVRTVLTGAVALGALVTVGAFFASK

Further lines, the molecule ahead of its results:

B1: GFP-BCL-w α1-α8 (aa 1-156) (domain or fragment, human, UniProt Q92843 1-156, looked up)
chain: MATPASAPDTRALVADFVGYKLRQKGYVCGAGPGEGPAADPLHQAMRAAGDEFETRFRRTFSDLAAQLHVTPGSAQQRFTQVSDELFQGGPNWGRLVAFFVFGAALCAESVNKEMEPLVGQVQEWMVAYLETQLADWIHSSGGWAEFTALYGDGAL
stoichiometry N (SEC [3]): 2

B2: BCL-wΔC (aa 1-156; α1-α8) (domain or fragment, human, UniProt Q92843 1-156, looked up)
chain: MATPASAPDTRALVADFVGYKLRQKGYVCGAGPGEGPAADPLHQAMRAAGDEFETRFRRTFSDLAAQLHVTPGSAQQRFTQVSDELFQGGPNWGRLVAFFVFGAALCAESVNKEMEPLVGQVQEWMVAYLETQLADWIHSSGGWAEFTALYGDGAL
stoichiometry N (SEC [4]): 2

B4: BCL-w G94E (full length) (natural protein, human, UniProt Q92843 1-193, looked up)
chain: MATPASAPDTRALVADFVGYKLRQKGYVCGAGPGEGPAADPLHQAMRAAGDEFETRFRRTFSDLAAQLHVTPGSAQQRFTQVSDELFQGGPNWERLVAFFVFGAALCAESVNKEMEPLVGQVQEWMVAYLETQLADWIHSSGGWAEFTALYGDGALEEARRLREGNWASVRTVLTGAVALGALVTVGAFFASK
stoichiometry N (SEC [4]): 2
